Laboratory results reported in patent publication US20120251581A1.

Molecular target: recombinant CypA (UniProt P62937)
Test: cell-based or functional assay

recombinant CypA, sequence (P62937 whole entry): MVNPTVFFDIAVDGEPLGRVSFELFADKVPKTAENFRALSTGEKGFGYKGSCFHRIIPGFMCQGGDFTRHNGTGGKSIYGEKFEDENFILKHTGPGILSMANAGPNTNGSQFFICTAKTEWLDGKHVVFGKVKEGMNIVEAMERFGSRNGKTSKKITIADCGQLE

For Cyclosporine A, 1 (peptide), the CypA PPIase IC50 was 9.7 nM.
For DEBIO-025, 2 (peptide), the CypA PPIase IC50 was 0.8 nM.
